The values below come from publication PMC11010949 (Protein Science : A Publication of the Protein Society, 2024).

One assay has as its target VPS29–VPS35C subcomplex (UniProt Q96QK1;Q9UBQ0). Kind of assay: crystal structure.
For assay [1], the target named is VPS29 (as expressed for the complexes, pMR101A‐VPS29) (UniProt Q9UBQ0). Kind of assay: crystal structure.

B1: peptide FAM21‐R21 (1328-SNIFDDPLNAFGGQ-1341) (peptide)
peptide: SNIFDDPLNAFGGQ
Take B1: the binding result (with VPS29–VPS35C subcomplex; in assay [1]) was “binds” in each case.
